{"source": "paper PMC8339232", "target": "PknF catalytic domain (cPknF) catalytic domain, 1-299 (UniProt P9WI75)", "settings": "reference: non-phosphorylated cPknF; sites T173,T175"}
{"substance": "PknF catalytic domain (cPknF) catalytic domain, 1-299 (from UniProt P9WI75)", "values": [{"measurement": "other: volume fraction of dimers", "value": "stronger; reference 44"}]}
